# Measurements taken from patent publication US20230414780A1 (VECT HORUS, published 2023).
# Changes are numbered by the printed parent chain.
# B1: VHH A15 (C5^V15) (VHH)
# VHH: EVQLVESGGGVVQPGGSLKLSCVASGTDFSINFIRWYRQAPGKQREFVAGFTATGNTNYADSMKGRFTISRDNTKNAVYLQIDSLKPEDTAVYYCFMLDKWGQGTQVTVSS
# B2: VHH A11 (C5^V11) (VHH)
# VHH: B1 VHH with F33Y, F96Y
# B3: C5^V29 (VHH)
# VHH: B1 VHH with T27A, N56H, F96Y
# B4: F2a (VHH)
# VHH: EVQLVESGGGLVQPGESLRLSCTASESISIYGVGWYRQAPGEQRVLVAHLKRNGLTEYKDSVKGRFTISRDNARNTIYLEMKNLKPEDTAIYYCNTALGSVLPWGRGTQVTVSS
# B5: C10a (VHH)
# VHH: EVQLVESGGGLVQAGDSLRLSCAASGFASHLYAIGWFRQAPGKEREKVSCISSNDGSTYYADSVKGRFTISRDTVKDMVYLQMNSLKPEDTAVYYCATDLTVHCFMAEYDWWGQGTQVTVSS
# B6: H1 (VHH)
# VHH: B5 VHH with A14P, D16G
# notes: also called phage-H1 (as tracer)
# B7: B7 (VHH)
# VHH: QVQLVQSGGGLVQAGGSLTLSCTASGRPLSDYPMGWFRRAPEKERELVASISRTGDGTYYADGMRGRFTISRDNSENTVSLQMNNLKPEDTAVYYCGAGINPTKYWGQGTQVTVSS
# B8: B8^V3 (VHH)
# VHH: EVQLVESGGGVVQPGGSLRLSCAASGEIFSINFMRWYREAPGKQREWVAGFTRDGSTNYPDSAKGRFTISRDNAKNTVYLQIDSLKPEDTAVYYCYMLDTWGQGTQVTVSS
# B9: B8^V22 (VHH)
# VHH: B8 VHH with F33Q, E39Q
# B10: C3 (VHH)
# VHH: EVQLVQSGGGLVQAGGSLRLSCAASGRDFSDTSMAWHRQAPGKERLWVAGIRSGSTSTSYADSVKGRFTISRDDAKNTVYLQMDNLTPEDTAVYFCYSKGYWGQGTQVTVSS
# B11: VHH C (B6) (VHH)
# VHH: EVQLVESGGGLVQPGGSLRLSCTASGGPIEQYPMGWFRRAPGKERELVASISRSGDGTYYAISSVKGRFTISRDNAENTVFLQMNSLKPDDTAVYYCGAGINPTKIWGQGTQVTVSS
# B12: E4 (VHH)
# VHH: EVQLVESGGGLVQAGDSLRLSCTASGLPLSNYPMGWFRRAPGKERELIASISRTGDGTYYADSSVKGRFTISRDNAENTVSLQMNSLKPEDTAVYYCGAGINPTKYWGQGTQVTVSS
# B13: C5^V27 (VHH)
# VHH: B1 VHH with T27A, F33Y, F96Y
# B14: VHH A2 (C5^V2) (VHH)
# VHH: B1 VHH with D28A, F96Y
# B15: VHH A9 (C5^V9) (VHH)
# VHH: B1 VHH with F96Y, K100A
# B16: VHH A3 (C5^V3) (VHH)
# VHH: B1 VHH with T54A, F96Y
# B17: VHH A4 (C5^V4) (VHH)
# VHH: B1 VHH with N56A, F96Y
# B18: C12b (VHH)
# VHH: QVQLVQSGGGLVQPGGSLRLSCAASGFTFSAYAMSWVRQAPGKGRELVASISRTGDGTYYADGMKGRFTISRDNAENTVSLQINSLKPEDTAIYYCGAGINPTKYWGQGTQVTVSS
# Target: T1, human TfR ectodomain fused to a mouse IgG1 Fc fragment (human, UniProt P02786 89-760)
# T1 construct: extracellular domain; ectodomain fused to the N-terminal end of the Fc, made in-house; not shown: mouse IgG1 Fc fragment
# T1 sequence (P02786 89-760): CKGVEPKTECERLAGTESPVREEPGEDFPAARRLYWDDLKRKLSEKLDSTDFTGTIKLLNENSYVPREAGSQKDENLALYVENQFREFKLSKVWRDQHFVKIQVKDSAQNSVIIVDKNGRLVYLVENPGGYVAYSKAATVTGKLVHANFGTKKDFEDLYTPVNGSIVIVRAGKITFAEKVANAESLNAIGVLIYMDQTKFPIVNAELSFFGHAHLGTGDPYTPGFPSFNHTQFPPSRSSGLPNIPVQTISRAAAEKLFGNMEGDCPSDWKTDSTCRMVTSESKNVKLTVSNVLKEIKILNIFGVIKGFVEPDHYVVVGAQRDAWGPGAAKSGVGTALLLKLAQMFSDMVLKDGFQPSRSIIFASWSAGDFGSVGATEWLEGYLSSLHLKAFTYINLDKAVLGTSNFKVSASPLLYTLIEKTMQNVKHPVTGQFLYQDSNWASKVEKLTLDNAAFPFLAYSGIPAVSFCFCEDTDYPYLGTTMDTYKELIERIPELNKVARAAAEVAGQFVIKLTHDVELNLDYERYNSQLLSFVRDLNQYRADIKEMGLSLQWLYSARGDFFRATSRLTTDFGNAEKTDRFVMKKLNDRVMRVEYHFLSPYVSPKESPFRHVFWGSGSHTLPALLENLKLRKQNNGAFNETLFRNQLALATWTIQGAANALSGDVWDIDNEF
# Experiment: SPR, kinetic
# Outline: (§1)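 TfR–mouse Fc fusions, produced in-house, captured on HC 1500M or CM5 chips either directly or via immobilized anti-mouse IgG. VHHs injected in single-cycle or multiple-cycle kinetic mode on Biacore T200.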
Binder,Kd [nM],koff [s⁻¹],kon [M⁻¹ s⁻¹]
B1,0.252,0.000176,700000
B2,0.395,0.000311,790000
B3,0.846,0.000982,1.17e+06
B4,0.545,0.000752,1.39e+06
B5,44.6,0.00726,188000
B6,57.7,0.00554,108000
B7,0.652,0.000758,1.16e+06
B8,0.505,3.38e-05,66900
B9,475,,698000
B10,0.559,0.00249,5.9e+06
B11,0.659,0.00121,1.73e+06
B12,1.25,0.00189,1.51e+06

# Target: T2, mouse TfR ectodomain fused to a mouse IgG1 Fc fragment (mouse, UniProt Q62351 89-763)
# T2 construct: extracellular domain; not shown: mouse IgG1 Fc fragment
# T2 sequence (Q62351 89-763): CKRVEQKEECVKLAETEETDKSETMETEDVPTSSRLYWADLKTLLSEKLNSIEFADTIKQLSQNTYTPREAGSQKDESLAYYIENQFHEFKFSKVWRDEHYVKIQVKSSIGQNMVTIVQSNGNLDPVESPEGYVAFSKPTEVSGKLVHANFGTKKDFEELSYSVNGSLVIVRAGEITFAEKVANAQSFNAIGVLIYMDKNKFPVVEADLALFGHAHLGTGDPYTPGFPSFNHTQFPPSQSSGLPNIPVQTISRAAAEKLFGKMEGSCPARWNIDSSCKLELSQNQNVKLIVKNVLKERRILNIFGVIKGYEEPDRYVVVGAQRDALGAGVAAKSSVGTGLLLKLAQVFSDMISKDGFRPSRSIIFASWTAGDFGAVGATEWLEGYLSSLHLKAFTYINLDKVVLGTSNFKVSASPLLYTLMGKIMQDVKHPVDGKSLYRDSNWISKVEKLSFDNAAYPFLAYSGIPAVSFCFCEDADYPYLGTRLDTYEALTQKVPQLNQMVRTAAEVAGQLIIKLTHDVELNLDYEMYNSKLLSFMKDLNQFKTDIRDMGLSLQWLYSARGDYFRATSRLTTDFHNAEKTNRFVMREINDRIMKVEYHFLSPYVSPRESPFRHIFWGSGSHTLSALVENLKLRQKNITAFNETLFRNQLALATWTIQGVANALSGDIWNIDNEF
# Experiment: SPR, kinetic
# Outline: as §1
Binder,Kd [nM],koff [s⁻¹],kon [M⁻¹ s⁻¹]
B13,207,0.102,493000
B14,109,0.0579,583000
B1,70.6,0.0563,797000
B15,40.8,0.0197,524000
B2,61.3,0.0218,355000
B16,83.5,0.0467,647000
B3,143,0.0675,472000
B17,89.7,0.0532,652000
B8,193,0.0343,178000

# Target: T3, rhesus monkey TfR ectodomain fused to a mouse IgG1 Fc fragment (rhesus monkey, UniProt I0FKY7 89-760)
# T3 construct: extracellular domain; not shown: mouse IgG1 Fc fragment
# Experiment: SPR, kinetic
# Outline: as §1
Binder,Kd [nM],koff [s⁻¹],kon [M⁻¹ s⁻¹]
B13,83.9,0.0278,332000
B5,24.6,0.0178,903000
B6,22.2,0.0109,662000

# Target: T1, human TfR ectodomain fused to a mouse …
# Experiment: SPR, at equilibrium
# Description: (§2) Binding properties of some VHHs were also evaluated using Surface Plasmon Resonance (SPR) experiments. The human, mouse and rhesus monkey TfR (having respectively GeneBank number NM_003234.2, NM_011638, NC_041755.1) ectodomains were fused to the N-terminal end of a mouse IgG1 Fc fragment and the recombinant proteins were produced and purified in-house. Interaction of VHHs with the receptors was tested using a Biacore T200 (GE Healthcare). Receptors were immobilized on an HC 1500M or a CM5 sensor chip (Xantec) either directly or on an anti-mouse IgG previously immobilized. VHHs were injected over flowcell by using the single-cycle kinetic or the multiple-cycle kinetic methods.
row,Binder,Kd [nM]
1,B5,86.8
2,B6,224
3,B18,2440
4,B9,480

# Target: T2, mouse TfR ectodomain fused to a mouse …
# Experiment: SPR, at equilibrium
# Description: as §2
row,Binder,Kd [nM]
1,B13,379
2,B14,108
3,B1,61.1
4,B15,40.5
5,B2,74.7
6,B16,98.8
7,B3,240
8,B17,91.8
9,B8,206

# Target: T3, rhesus monkey TfR ectodomain fused to a …
# Experiment: SPR, at equilibrium
# Description: as §2
row,Binder,Kd [nM]
1,B5,38.1
2,B6,27.8

# Target: T4, mouse transferrin receptor (mTfR) fused to EGFP, on CHO cells (mouse, UniProt Q62351 1-763)
# T4 construct: whole, on cells; also called mouse TfR; CHO-mTfR-EGFP; not shown: EGFP
# T4 sequence (Q62351 whole entry, the tested form may be a part): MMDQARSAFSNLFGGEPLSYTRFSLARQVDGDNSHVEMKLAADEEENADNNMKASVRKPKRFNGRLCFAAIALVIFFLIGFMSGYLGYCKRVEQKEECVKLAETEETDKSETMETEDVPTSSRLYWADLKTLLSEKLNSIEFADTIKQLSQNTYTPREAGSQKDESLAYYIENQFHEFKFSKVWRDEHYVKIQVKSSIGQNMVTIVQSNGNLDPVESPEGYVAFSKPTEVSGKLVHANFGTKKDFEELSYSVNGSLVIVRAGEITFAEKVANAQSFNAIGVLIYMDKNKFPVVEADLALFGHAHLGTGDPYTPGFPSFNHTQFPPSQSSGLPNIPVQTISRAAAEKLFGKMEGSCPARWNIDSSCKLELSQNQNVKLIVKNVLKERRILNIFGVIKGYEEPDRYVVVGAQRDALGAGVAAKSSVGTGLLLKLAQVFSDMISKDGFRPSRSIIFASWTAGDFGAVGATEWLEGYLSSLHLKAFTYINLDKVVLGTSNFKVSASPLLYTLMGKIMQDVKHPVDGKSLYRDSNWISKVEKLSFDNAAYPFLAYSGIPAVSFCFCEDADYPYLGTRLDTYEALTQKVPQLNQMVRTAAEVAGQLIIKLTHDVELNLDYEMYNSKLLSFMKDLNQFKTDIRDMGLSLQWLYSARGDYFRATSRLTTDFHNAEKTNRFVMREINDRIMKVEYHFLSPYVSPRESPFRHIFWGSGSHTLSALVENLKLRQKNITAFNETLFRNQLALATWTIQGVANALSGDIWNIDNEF
# Experiment: flow cytometry, CHO cells
# Description: The binding properties of VHHs with affinity for the TfR from different species (i.e., human (h), mouse (m) and rhesus monkey (rh)) were tested using flow cytometry, and apparent affinities (Kd app) were determined. All experiments were performed in 96 well plates using 2×10⁵ cells/well, at 4° C. with shaking. CHO cell lines expressing the hTfR, mTfR or rhTfR fused to EGFP were saturated with PBS/BSA 2% solution during 30 min to avoid nonspecific binding, followed by incubation with purified VHHs at increasing concentrations for 1 hr. After one wash in PBS/BSA 2%, cells were incubated for 1 hr with an anti-6His tag antibody (mouse), washed twice with PBS/BSA 2%, and incubated for 1 hr with an Alexa647-conjugated anti-mouse secondary antibody. After two last washes in PBS/BSA 2%, cells were fixed by incubation for 15 min with PBS/PFA 2%, washed once with PBS and finally resuspended in PBS. Fluorescence levels were assessed using an Attune NxT flow cytometer (Thermo Fisher Scientific). Experimental data were fitted with GraphPad Prism® software using a nonlinear fit to determine the apparent Kd constants. […] Table 5 hereafter summarizes apparent Kd obtained for the tested VHHs.
row,Binder,binding result
1,B4,no binding
2,B5,no binding
3,B6,no binding
4,B18,no binding
5,B7,no binding
6,B9,no binding
7,B10,no binding
8,B11,no binding
9,B12,no binding

# Target: T5, human transferrin receptor (hTfR) fused to EGFP, on CHO cells (human, UniProt P02786 1-760)
# T5 construct: whole, on cells; also called human TfR; CHO-hTfR-EGFP; not shown: EGFP from pEGFP-C1 vector, fused to the N-terminal (intracellular) end of hTfR
# T5 sequence (P02786 whole entry, the tested form may be a part): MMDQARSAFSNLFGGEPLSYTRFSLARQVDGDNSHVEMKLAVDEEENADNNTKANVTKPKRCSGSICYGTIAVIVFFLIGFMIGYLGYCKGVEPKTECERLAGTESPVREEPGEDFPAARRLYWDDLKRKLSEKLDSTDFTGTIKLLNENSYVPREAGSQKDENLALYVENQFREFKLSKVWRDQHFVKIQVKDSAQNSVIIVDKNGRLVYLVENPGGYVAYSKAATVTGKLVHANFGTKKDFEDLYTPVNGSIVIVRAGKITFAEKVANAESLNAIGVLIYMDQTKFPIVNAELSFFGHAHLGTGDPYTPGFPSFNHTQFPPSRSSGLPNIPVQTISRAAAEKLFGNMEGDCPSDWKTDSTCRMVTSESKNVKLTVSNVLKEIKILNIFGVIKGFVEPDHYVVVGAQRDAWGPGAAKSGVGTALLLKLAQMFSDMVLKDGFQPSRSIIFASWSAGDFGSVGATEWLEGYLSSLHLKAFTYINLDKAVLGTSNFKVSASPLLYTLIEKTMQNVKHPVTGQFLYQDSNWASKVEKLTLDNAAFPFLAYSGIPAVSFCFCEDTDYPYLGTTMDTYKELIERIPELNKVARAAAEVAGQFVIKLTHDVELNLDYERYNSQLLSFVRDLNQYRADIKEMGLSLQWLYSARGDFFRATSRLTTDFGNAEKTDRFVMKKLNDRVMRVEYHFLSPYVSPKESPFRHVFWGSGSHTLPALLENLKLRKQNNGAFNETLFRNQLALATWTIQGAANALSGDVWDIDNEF
# Experiment: apparent Kd, flow cytometry, CHO cells
# Outline: (§3)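 CHO cells expressing TfR-EGFP fusions, blocked in PBS/BSA 2%, then incubated with increasing VHH concentrations for 1 hr at 4° C. Bound VHH detected via anti-6His antibody and Alexa647 secondary, cells PFA-fixed, read by flow cytometry. Apparent Kd from nonlinear fit.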
row,Binder,Kd [nM]
1,B13,3.1
2,B14,3.2
3,B1,3.7
4,B15,3.4
5,B2,3.4
6,B3,2.9
7,B17,3.1
8,B4,2.9
9,B5,4.1
10,B6,11
11,B18,630
12,B7,1.9
13,B8,36
14,B9,321
15,B11,2.1
16,B12,3.1

# Target: T4, mouse transferrin receptor (mTfR) fused …
# Experiment: apparent Kd, flow cytometry, CHO cells
# Outline: as §3
row,Binder,Kd [nM]
1,B13,197
2,B14,136
3,B1,207
4,B15,47
5,B2,197
6,B16,138
7,B3,207
8,B17,179
9,B8,52

# Target: T6, rhesus monkey transferrin receptor (rhTfR) fused to EGFP, on CHO cells (rhesus monkey)
# T6 construct: whole, on cells; also called rhesus monkey TfR
# Experiment: apparent Kd, flow cytometry, CHO cells
# Outline: as §3
row,Binder,Kd [nM]
1,B13,178
2,B14,5.7
3,B1,10
4,B15,4.6
5,B2,20
6,B16,7
7,B3,66
8,B17,3.4
9,B5,3.2
10,B6,3.7
11,B8,19
12,B9,971
13,B10,4230
